The values that follow come from patent US7148006.

The target in series [1] is T1, NS5A 1a-wt (full-length NS5A from IFN-resistant HCV-1a, untagged), P26664.
T1 chain: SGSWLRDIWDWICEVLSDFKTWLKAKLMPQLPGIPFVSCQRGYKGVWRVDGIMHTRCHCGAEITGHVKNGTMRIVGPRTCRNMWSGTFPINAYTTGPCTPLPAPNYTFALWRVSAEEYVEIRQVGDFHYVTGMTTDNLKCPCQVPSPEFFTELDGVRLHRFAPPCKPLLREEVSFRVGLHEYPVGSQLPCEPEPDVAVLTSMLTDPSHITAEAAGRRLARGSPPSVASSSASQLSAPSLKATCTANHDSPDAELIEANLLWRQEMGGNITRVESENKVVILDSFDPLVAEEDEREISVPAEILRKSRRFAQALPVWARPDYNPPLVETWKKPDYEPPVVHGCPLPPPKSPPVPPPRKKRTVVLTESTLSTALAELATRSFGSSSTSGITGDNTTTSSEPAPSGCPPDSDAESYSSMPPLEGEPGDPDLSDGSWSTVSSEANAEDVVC

Series [2] concerns the target GST (glutathione-S-transferase alone) [GST: P08515].
Series [3] addresses vaccinia virus K3L protein, P18378.
Series [4] has as its target NS5A 1b-5 (untagged, expressed from pYES-NS5A 1b-5).
For series [5], the target named is T2, GST-NS5A (HCV-1a NS5A aa 1-427 fused in frame with glutathione-S-transferase), P26664.
T2 chain: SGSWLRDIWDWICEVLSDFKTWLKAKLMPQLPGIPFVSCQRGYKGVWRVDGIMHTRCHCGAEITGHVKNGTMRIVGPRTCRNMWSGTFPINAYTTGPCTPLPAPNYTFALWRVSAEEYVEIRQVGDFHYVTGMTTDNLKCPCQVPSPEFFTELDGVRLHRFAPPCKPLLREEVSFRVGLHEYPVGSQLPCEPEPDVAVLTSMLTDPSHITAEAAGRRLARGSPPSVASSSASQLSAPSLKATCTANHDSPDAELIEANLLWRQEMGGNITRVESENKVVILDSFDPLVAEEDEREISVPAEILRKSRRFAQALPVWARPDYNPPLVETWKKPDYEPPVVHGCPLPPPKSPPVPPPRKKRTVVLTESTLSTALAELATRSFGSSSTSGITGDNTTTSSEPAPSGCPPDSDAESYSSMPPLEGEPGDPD

Series [6] addresses NS5A 1b-wt (untagged, expressed from pYES-NS5A 1b-wt).
The target of series [7] is NS5A 1b-2 (untagged, expressed from pYES-NS5A 1b-2).
Series [8] concerns the target NS5A 1b-4 (untagged, expressed from pYES-NS5A 1b-4).

B1: wild type human PKR, full length (aa 1-551) (protein)
chain: MAGDLSAGFFMEELNTYRQKQGVVLKYQELPNSGPPHDRRFTFQVIIDGREFPEGEGRSKKEAKNAAAKLAVEILNKEKKAVSPLLLTTTNSSEGLSMGNYIGLINRIAQKKRLTVNYEQCASGVHGPEGFHYKCKMGQKEYSIGTGSTKQEAKQLAAKLAYLQILSEETSVKSDYLSSGSFATTCESQSNSLVTSTLASESSSEGDFSADTSEINSNSDSLNSSSLLMNGLRNNQRKAKRSLAPRFDLPDMKETKYTVDKRFGMDFKEIELIGSGGFGQVFKAKHRIDGKTYVIKRVKYNNEKAEREVKALAKLDHVNIVHYNGCWDGFDYDPETSDDSLESSDYDPENSKNSSRSKTKCLFIQMEFCDKGTLEQWIEKRRGEKLDKVLALELFEQITKGVDYIHSKKLIHRDLKPSNIFLVDTKQVKIGDFGLVTSLKNDGKRTRSKGTLRYMSPEQISSQDYGKEVDLYALGLILAELLHVCDTAFETSKFFTDLRDGIISDIFDKKEKTLLQKLLSKKPEDRPNTSEILRTLTVWKKSPEKNERHTC
As for B1, the “level of basally phosphorylated eIF-2α relative to total (isoelectric focusing, densitometry)” value in series [1] is on record as “NS5A, 9.8% (lane 2)”; in series [3], “K3L, 11.7% (lane 3)”. Moreover, in series [1], the “level of unphosphorylated eIF-2α in yeast RY1-1 over vector control” value was “approximately an 11-fold increase in the level of unphosphorylated eIF-2α”. Besides, the “PKR autophosphorylation and phosphorylation of an exogenous histone substrate, in vitro kinase assay” value in series [2] is “Equal molar levels of GST had no effect upon PKR activity”; in series [5] it was “as little as 0.2 pmol of NS5A can inhibit 1.8 pmol of PKR”. The “eIF-2α serine 51 phosphorylation in yeast RY1-1 (isoelectric focusing immunoblot)” value was “possessed predominantly the hyper-phosphorylated isoform of eIF-2α, similar to the vector control strain” in series [4]; “exhibited a significant reduction in the level of hyper-phosphorylated eIF-2α” in series [6]; “possessed predominantly the hyper-phosphorylated isoform of eIF-2α, similar to the vector control strain” in series [7]; “possessed predominantly the hyper-phosphorylated isoform of eIF-2α, similar to the vector control strain” in series [8].
